From the supplement of paper PMC10567573

B1: INTS4 (parent)
chain: IRLVDDAFGKICHMVSDGSWVVRV
B2: CLPTM1 (parent)
chain: MNLHVYISEHEHFTDFNATSALFW

Variants of: B1
Assay: protein stability index of a GFP-peptide fusion (GPS, HEK-293T) (PSI 1-6); higher = more stable
Details: c terminus: a fixed tail appended
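Further: lentivirally expressed fusions sorted by FACS into six bins by GFP to DsRed ratio, PSI derived from sequencing read proportions per bin multiplied by bin number.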

Variant | protein stability index
IRLVDDSFGKICHMVSDGSWVVRV | 4.46
IRLVDDMFGKICHMVSDGSWVVRV | 2.62
IRLVDDAFGKICAMVSDGSWVVRV | 3.2
IRLVDDAFGKICIMVSDGSWVVRV | 3.17
IRLVDDAFGKICHMVSDGSWVVRF | 3.03
IRLVDDADGKICHMVSDGSWVVRV | 4.44
IRLVDDAFGKICHMRSDGSWVVRV | 3.53
IRLVDDAFGKICHMFSDGSWVVRV | 2.51
IRLVDDAFGKICHMLSDGSWVVRV | 2.74
IRLVDDAFGKICHMCSDGSWVVRV | 4.47
IRFVDDAFGKICHMVSDGSWVVRV | 2.76
IRLVDDAFGKICHMVMDGSWVVRV | 2.25
IRLVDDAFGKICHMVQDGSWVVRV | 2.47
IRLVDDAFGKICHMVVDGSWVVRV | 1.29
IRLVDDAFGKICHMVSQGSWVVRV | 3.32
IRLVDDAFGKICHMVSSGSWVVRV | 3.98
IRLRDDAFGKICHMVSDGSWVVRV | 1.47
IRLIDDAFGKICHMVSDGSWVVRV | 3.33
PRLVDDAFGKICHMVSDGSWVVRV | 2.78
IRLVDDAFGKIFHMVSDGSWVVRV | 1.73

Variant | protein stability index
IRLVDDAFGKIPHMVSDGSWVVRV | 3.97
IRLVDDAFGKINHMVSDGSWVVRV | 2.44
IRLVDDAFGKIGHMVSDGSWVVRV | 5.66
IRLVDTAFGKICHMVSDGSWVVRV | 3.69
IRLVDDAFGKICHMVSDGDWVVRV | 3.41
IRLVDDAFGKICHMVSDGLWVVRV | 2.95
IRLVDDAFGKICHMVSDGSLVVRV | 2.83
IRLVDDAFGKICHMVSDGSHVVRV | 3.71
IRLVDDAFGKICHMVSDGSEVVRV | 1.64
IRLVDDAFGCICHMVSDGSWVVRV | 3.27
IRLVDDAFGKICHMVSDGSWVLRV | 2.82
IRLVDDAFGKNCHMVSDGSWVVRV | 2.3
IRLVDDAFGKICHSVSDGSWVVRV | 2.48
IRLVDDAFMKICHMVSDGSWVVRV | 2.96
IRLVDDAFGKICHMVSDDSWVVRV | 3.61
IRLVDDAFGKICHMVSDGSWVVMV | 3.4
IRLVDDAFGKICHMVSDGSWVVFV | 3
IRLVDDAFGKICHMVSDGSWVVLV | 4.2
IRLVDDAFGKICHMVSDGSWPVRV | 1.98

Variants of: B2
Assay: as above
Details: c terminus: a fixed tail appended

Variant | protein stability index
MNLHVYISEHEHFTDFNETSALFW | 1.97
MNLHVYISEHEHFTDFNQTSALFW | 5.84
MNLHVYISEHEHFTDFNFTSALFW | 4.2
MNLHVYISEHEHFTDFNGTSALFW | 3.77
MNLHVYISEHEHFTDFNTTSALFW | 1.84
MNLHVYISEHEHFTDFNMTSALFW | 4.1
MNLHVYISEHETFTDFNATSALFW | 2.1
MNLHVYISEHEQFTDFNATSALFW | 1.98
MNLHVYISEHECFTDFNATSALFW | 2.72
MNLHVYISEHEYFTDFNATSALFW | 2.77
MNLHVYISEHEFFTDFNATSALFW | 3.38
MILHVYISEHEHFTDFNATSALFW | 2.04
MTLHVYISEHEHFTDFNATSALFW | 2.58
MFLHVYISEHEHFTDFNATSALFW | 3.32
MCLHVYISEHEHFTDFNATSALFW | 2.73
MNLHVYIIEHEHFTDFNATSALFW | 1.69
MNLHVYIWEHEHFTDFNATSALFW | 3.59
MNLHVYIREHEHFTDFNATSALFW | 3.37
MNLHVYITEHEHFTDFNATSALFW | 2.08
MNLHVYISEHEHFTWFNATSALFW | 3.89
MNLHVYISEHEHFTSFNATSALFW | 4.3
MNLHVYISEHEHFTEFNATSALFW | 2.73
MNLHVYISEHEHFTTFNATSALFW | 3.63
MNLHVYISEHEHFTMFNATSALFW | 3
MNLHVYISEHEHFTDFRATSALFW | 2.01

Variant | protein stability index
MNLHVYISEHEHFTDFAATSALFW | 2.59
MNLHVYISEHEHFTDFIATSALFW | 3.01
MNLHVYISEHEHFTDFKATSALFW | 3.02
MNLHVYISEHEHFTDFEATSALFW | 3.66
MNLHVYISEHEHFTDFNATSAHFW | 2.6
MNLHVYISEHEHFTDFNATSARFW | 1.1
MNLHVYISEHEHFTDFNATSAYFW | 2.2
MNLHVYISEHEHFTDFNATSAAFW | 4.09
MNLHVYISEHEHFTDFNATSATFW | 3.54
MNLHVYISEHEHFTDFNATSAIFW | 1.59
MNLHVYISEHEHFTDFNATSNLFW | 2.35
MNLHVYISEHEHFTDFNATSGLFW | 3.69
MNLHVYISEHEHFTDFNATSCLFW | 3.19
MNLHVYISEHEHFTDFNATSKLFW | 3.78
MNLHVYISEHEHFTDFNATSTLFW | 2.67
MNLHVYISEHEHFTDFNATSVLFW | 2.4
MNLHVYISEHEHFTDFNATQALFW | 2.59
MNLHVYISEHEHFTDFNATTALFW | 4.14
MNLHVYISEHEHFTDFNATIALFW | 2.69
MNLHVYISEHEHFTDFNATRALFW | 2.1
MNLHVYISEHEHFTDFNATKALFW | 3.57
MNLHVYISEHEHFTDFNATGALFW | 2.69
MNLHVYISEHEHFTDFNATNALFW | 3.39
MNLHVYISEHEHFTDFNATVALFW | 2.29
MNLHVYISEHEHFTDFNATCALFW | 2.75

Variant | protein stability index
MNLHVYISEHEHFTDFNATSALYW | 5.1
MNLHVYISEHEHFTDFNATSALQW | 2.56
MNLHVYISEHEHFTDFNATSALRW | 2.46
MNLHVYISEHEHFTDFNATSALEW | 1.81
MNLHVYISEHEHFTDFNATSALVW | 2.13
MNLHVYISEHEHFTDFNATSALHW | 3.78
MNLHVYISEHEHFTDFNATSALCW | 2.69
MNLHYYISEHEHFTDFNATSALFW | 2.24
MNLHQYISEHEHFTDFNATSALFW | 1.48
MNLHLYISEHEHFTDFNATSALFW | 2.05
MNLHMYISEHEHFTDFNATSALFW | 3.04
MNLHAYISEHEHFTDFNATSALFW | 2.42
MNLHWYISEHEHFTDFNATSALFW | 4.32
MNLHHYISEHEHFTDFNATSALFW | 2.42
MNLHSYISEHEHFTDFNATSALFW | 3.51
MNLHKYISEHEHFTDFNATSALFW | 2.01
MNSHVYISEHEHFTDFNATSALFW | 2.15
MNQHVYISEHEHFTDFNATSALFW | 1.42
MNMHVYISEHEHFTDFNATSALFW | 2.18
MNRHVYISEHEHFTDFNATSALFW | 1.96
MNVHVYISEHEHFTDFNATSALFW | 1.14
MNNHVYISEHEHFTDFNATSALFW | 1.2
MNGHVYISEHEHFTDFNATSALFW | 2.78
MNLHVYISEHEHFKDFNATSALFW | 3.17
MNLHVYISEHEHFIDFNATSALFW | 2.23

Variant | protein stability index
MNLHVYISEHEHFADFNATSALFW | 3.39
MNLHVYISEHEHFQDFNATSALFW | 2.62
MNLHVYISETEHFTDFNATSALFW | 3.76
MNLHVYISEMEHFTDFNATSALFW | 2.73
MNLHVYISEPEHFTDFNATSALFW | 2.64
MNLHVYISEHEHFTDWNATSALFW | 2.71
MNLHVYISEHEHFTDYNATSALFW | 2.26
MNLHVYISEHEHFTDGNATSALFW | 2.76
MNLHVYISEHEHFTDDNATSALFW | 1.79
MNLHVYISEHEHFTDTNATSALFW | 1.87
MNLHVYISEHEHFTDHNATSALFW | 3.52
MNLHVYISEHEHFTDENATSALFW | 2.87
MNLHVYISEHCHFTDFNATSALFW | 3.77
MNLHVYISEHIHFTDFNATSALFW | 2.42
MNLHVYISEHQHFTDFNATSALFW | 2.87
MNLHVYCSEHEHFTDFNATSALFW | 2
MNLHVYKSEHEHFTDFNATSALFW | 2.96
MNLHVYDSEHEHFTDFNATSALFW | 2.53
MNLHVYWSEHEHFTDFNATSALFW | 2.65
MNLHVYVSEHEHFTDFNATSALFW | 3.33
MNLHVYESEHEHFTDFNATSALFW | 2.48
MNLHVYFSEHEHFTDFNATSALFW | 2.58
MNLHVYISEHEHPTDFNATSALFW | 2.63
MNLHVYISEHEHSTDFNATSALFW | 2.4
MNLHVYISEHEHLTDFNATSALFW | 4.51

Variant | protein stability index
MNLHVYISEHEHTTDFNATSALFW | 1.95
MNLHVYISEHEHGTDFNATSALFW | 2.42
MNLHVYISEHEHNTDFNATSALFW | 3.8
MNLHVYISEHEHVTDFNATSALFW | 2.63
MNLHVYISEHEHHTDFNATSALFW | 2.67
MNLHVYISEHEHKTDFNATSALFW | 4.65
MNLHVYISEHEHFTDFNARSALFW | 2.89
MNLHVYISEHEHFTDFNACSALFW | 2.92
MNLHVYISEHEHFTDFNAWSALFW | 1.67
MNLHVYISEHEHFTDFNAISALFW | 3.09
MNLHVYISEHEHFTDFNAESALFW | 2.59
MNLHVYISEHEHFTDFNANSALFW | 3.66
MNLHVFISEHEHFTDFNATSALFW | 2.84
MNLHVTISEHEHFTDFNATSALFW | 4.82
MNLHVKISEHEHFTDFNATSALFW | 3.26
MNLHVAISEHEHFTDFNATSALFW | 2.15
MNLHVDISEHEHFTDFNATSALFW | 2.1
MNLHVSISEHEHFTDFNATSALFW | 3.07
MNLHVYISYHEHFTDFNATSALFW | 2.5
MNLHVYISFHEHFTDFNATSALFW | 2.28
MNLHVYISGHEHFTDFNATSALFW | 4.46
MNLHVYISNHEHFTDFNATSALFW | 3.59
MNLHVYISVHEHFTDFNATSALFW | 3.22
MNLHVYISHHEHFTDFNATSALFW | 4.25
MNLHVYISTHEHFTDFNATSALFW | 2.48

Variant | protein stability index
MNLHVYISKHEHFTDFNATSALFW | 2.52
MNLFVYISEHEHFTDFNATSALFW | 1.89
MNLMVYISEHEHFTDFNATSALFW | 2.69
MNLIVYISEHEHFTDFNATSALFW | 2.62
MNLPVYISEHEHFTDFNATSALFW | 1.43
MNLLVYISEHEHFTDFNATSALFW | 2.97
MNLWVYISEHEHFTDFNATSALFW | 4.27
MNLQVYISEHEHFTDFNATSALFW | 2.12
DNLHVYISEHEHFTDFNATSALFW | 1.72
VNLHVYISEHEHFTDFNATSALFW | 3.6
NNLHVYISEHEHFTDFNATSALFW | 3.69
FNLHVYISEHEHFTDFNATSALFW | 2.29
GNLHVYISEHEHFTDFNATSALFW | 2.8
SNLHVYISEHEHFTDFNATSALFW | 2.69
PNLHVYISEHEHFTDFNATSALFW | 1.93
MNLHVYISEHEHFTDFNATSALFE | 4.09
MNLHVYISEHEHFTDFNATSALFD | 3.34
MNLHVYISEHEHFTDFNATSALFT | 3.19
MNLHVYISEHEHFTDFNATSALFN | 2.98
MNLHVYISEHEHFTDFNATSALFI | 1.93
MNLHVYISEHEHFTDFNATSALFF | 4.25
MNLHVYISEHEHFTDFNATSALFK | 1.88
MNLHVYISEHEHFTDFNATSALFY | 2.95
MNLHVYISEHEHFTDFNATSALFC | 1.83
